What is called stoichiometry N is a count of units in the complex or per binding partner.

For experiment [1], the target named is DosP^WT (wild-type full-length DosP, tag-free after TEV cleavage) (Escherichia coli). As to the kind of experiment: cryo-EM structure.
In experiment [2] the target is DosP^FLAG-R97A (full-length DosP with R97A and three copies of the FLAG motif on its C-terminus) (Escherichia coli). As to the kind of experiment: cryo-EM structure.

Substance “DosP^WT (wild-type full-length DosP, tag-free after TEV cleavage) (enzyme)” came in with a stoichiometry N in experiment [1] of 2.

In experiment [2], “DosP^FLAG-R97A (full-length DosP with R97A and three copies of the FLAG motif on its C-terminus) (enzyme)” showed a stoichiometry N of 2.

The record behind these values is PMC11543664.
